# Laboratory results reported in the supplement of paper PMC10126150.
# ± gives the standard deviation of the averaged measurements.
# Tested on: ATP
# Test: switch fluorescence ratio, 500 uM ATP over buffer (Cy3 cluster intensity, sum of 5 cycles each) (fold (ratio)); higher = stronger signal-on switching upon ATP binding; sequences stand for … in TCGTCGGCAGCGTCAGATGTGTATAAGAGACAGTTTTTTTTTTTTTTTTTTTTTTTTT…TC
# Details: aptamer strand: ATP DNA aptamer (quencher-CACCTGGGGGAGTATTGCGGAGGAAGG + anchor), 100 nM annealed; ATP concentration: 500 uM
# Method in brief: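 Values give the fluorescence ratio for each switch-domain sequence, averaged from per-cluster ratios of summed target-cycle to summed buffer-cycle Cy3 intensity. The Cy3-labelled switching-strand clusters sat on a modified Illumina MiSeq flow-cell, were annealed to 100 nM quencher-labelled ATP aptamer, and were imaged in selection buffer, then after 15 min with 500 uM ATP at 22 °C. Five cycles ran with NaOH stripping and re-annealing between them, and clusters outside 100-1000 RFU were excluded.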
# 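Also: ATP exposure 15 min at 22 °C before imaging.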
row,Sequence,switch fluorescence ratio
1,CGACCATAGC,1.84 ± 0.19
2,CGACCGGGGA,1.04 ± 0.011
3,CGACCGTAAA,1.5 ± 0.14
4,CGACCTTGCT,1.55 ± 0.26
5,CGACGACTGG,1.01 ± 0.017
6,CGACGGGGGG,1 ± 0.017
7,CGACGGTTGG,0.967 ± 0.013
8,CGACTATTTT,1.01 ± 0.045
9,CGACTTGGTA,0.9766 ± 0.0011
10,CGAGAATGTT,1.07 ± 0.1
11,CGAGAGGAAA,0.9804 ± 0.0046
12,CGAGAGGAGC,0.998 ± 0.073
13,CGAGAGGGAG,1.004 ± 0.0015
14,CGAGAGGGGT,1.02 ± 0.044
15,CGAGAGTGCG,0.962 ± 0.023
16,CGAGAGTTTT,0.985 ± 0.032
17,CGAGCGATGG,1.94 ± 0.074
18,CGAGGAGGGG,0.995 ± 0.02
19,CGAGGCAGGT,1.51 ± 0.093
20,CGAGGCATTA,4.8 ± 1.4
21,CGAGGGACGG,0.992 ± 0.024
22,CGAGGGATTC,1.12 ± 0.048
23,CGAGGGGAAG,0.992 ± 0.022
24,CGAGGGGGAG,1.004 ± 0.0097
25,CGAGGGTATG,1.01 ± 0.027

row,Sequence,switch fluorescence ratio
1,CGAGGGTGGC,0.96 ± 0.11
2,CGAGGGTTAT,1.005 ± 0.0054
3,CGAGGTACGT,0.9867 ± 0.0046
4,CGAGGTGTGT,1.009 ± 0.0022
5,CGAGTCAGTG,0.979 ± 0.065
6,CGAGTGTCGG,0.984 ± 0.02
7,CGAGTTCCTT,1.02 ± 0.014
8,CGAGTTGGAC,1.0038 ± 0.00091
9,CGATAAACGG,1.03 ± 0.022
10,CGATAAGGGG,1.02 ± 0.018
11,CGATACCTTT,1.003 ± 0.0086
12,CGATAGAAAG,1.01 ± 0.024
13,CGATAGGCGT,0.9927 ± 0.0032
14,CGATAGGTAG,0.994 ± 0.018
15,CGATAGGTGG,0.975 ± 0.094
16,CGATATAAGA,0.998 ± 0.054
17,CGATATACTG,1.09 ± 0.074
18,CGATATAGGC,0.959 ± 0.018
19,CGATATCGC,1.03 ± 0.014
20,CGATATGTTT,1.01 ± 0.079
21,CGATATTGGT,1 ± 0.017
22,CGATCAAAAC,1.26 ± 0.31
23,CGATCATAGG,1.01 ± 0.049
24,CGATCATGGT,0.994 ± 0.011
25,CGATCCCATT,1.05 ± 0.037

row,Sequence,switch fluorescence ratio
1,CGATCTGCTC,1.06 ± 0.025
2,CGATGGAGTG,0.983 ± 0.027
3,CGATGGGAAA,1.01 ± 0.014
4,CGATGGGATC,1.13 ± 0.0074
5,CGATGGGCAG,1.04 ± 0.061
6,CGATGGGGGT,1 ± 0.026
7,CGATGGGTTT,0.969 ± 0.0062
8,CGATGGTGTC,1.01 ± 0.036
9,CGATGGTTGG,1.03 ± 0.07
10,CGATGTTCAC,1.05 ± 0.011
11,CGATGTTGAG,1.002 ± 0.01
12,CGATTAAAGT,0.997 ± 0.031
13,CGATTCTTAA,0.996 ± 0.011
14,CGATTGAGCA,0.994 ± 0.031
15,CGATTGCAG,1.0118 ± 0.00044
16,CGATTGGTGT,1.02 ± 0.021
17,CGATTGTTGA,1.01 ± 0.037
18,CGATTTAATA,1.01 ± 0.051
19,CGATTTAGCG,0.9773 ± 0.009
20,CGATTTCAGG,1.02 ± 0.036
21,CGATTTGGCA,1.01 ± 0.0076
22,CGATTTGTGT,0.984 ± 0.011
23,CGATTTTCGT,0.998 ± 0.044
24,CGATTTTGAG,0.9768 ± 0.0076
25,CGCAAAGGGC,2.12 ± 1.4

row,Sequence,switch fluorescence ratio
1,CGCAACTATG,1.56 ± 0.026
2,CGCAATTAGG,3.97 ± 0.46
3,CGCACAGCAC,1.59 ± 0.023
4,CGCAGCCCAG,1.58 ± 0.086
5,CGCAGGGGGT,1.01 ± 0.039
6,CGCAGTAGTG,1.16 ± 0.032
7,CGCATAGAAA,1.02 ± 0.045
8,CGCATAGGCC,1.77 ± 0.2
9,CGCATCAACG,1.18 ± 0.087
10,CGCATCTGGG,1.09 ± 0.017
11,CGCATGGGGG,1.08 ± 0.011
12,CGCATGTCTT,1.07 ± 0.0029
13,CGCATTTAGA,1.04 ± 0.047
14,CGCATTTGCT,1.15 ± 0.07
15,CGCCATTGTT,1.01 ± 0.011
16,CGCCCCGGCC,1.06 ± 0.097
17,CGCCCCTTGC,1.17 ± 0.031
18,CGCCCTCTCC,2.18 ± 0.23
19,CGCCGAATCT,0.961 ± 0.042
20,CGCCGGCACT,0.992 ± 0.027
21,CGCCGGGAGA,1.05 ± 0.036
22,CGCCGGGGGA,1.05 ± 0.036
23,CGCCGGGGGG,1.04 ± 0.046
24,CGCCTCGTAA,1.191 ± 0.01
25,CGCCTTGGTT,1.02 ± 0.013
